Laboratory results from patent publication US20070066516A1, “Compounds comprising cyclized somatostatin receptor binding peptides” (priority 2005, published 2007).
Read-outs that look alike come from different tables or passages of the source. Where a SMILES comes first, the peptide text is derived from it. Bridges are numbered along the chain shown (N, C = ends). Roman numbers before positions name the chains, in order. Where no end group is shown, it is not given here. [ ]: non-standard residue; d: D form. βDpr = 2,3-diaminopropanoic acid whose beta-amino group bears the -CH2CO- link to the S of (NMe)hCys; GlyMeDOTA = DOTA chelator on the lysine side chain; Tpi = O=C(O)[C@@H]1Cc2c([nH]c3ccccc23)CN1; βAla(cyclopropyl) = beta-Ala(cyclopropyl); Dip = N[C@H](C(=O)O)C(c1ccccc1)c1ccccc1; Phe(4-NH2) = Nc1ccc(C[C@H](N)C(=O)O)cc1; 1Nal = N[C@@H](Cc1cccc2ccccc12)C(=O)O; NMeF = CN[C@@H](Cc1ccccc1)C(=O)O; NMehCys = CN[C@@H](CCS)C(=O)O; Dap = NC[C@H](N)C(=O)O

What was measured:
SSTR2 = SSTR2 (Homo sapiens, UniProt P30874); experiment: Radioligand binding assay on membranes of CHO-K1 cells expressing SSTR2; conditions: membranes from CHO-K1 cells stably expressing cloned somatostatin receptor 2
Sequence of SSTR2 (P30874 whole entry): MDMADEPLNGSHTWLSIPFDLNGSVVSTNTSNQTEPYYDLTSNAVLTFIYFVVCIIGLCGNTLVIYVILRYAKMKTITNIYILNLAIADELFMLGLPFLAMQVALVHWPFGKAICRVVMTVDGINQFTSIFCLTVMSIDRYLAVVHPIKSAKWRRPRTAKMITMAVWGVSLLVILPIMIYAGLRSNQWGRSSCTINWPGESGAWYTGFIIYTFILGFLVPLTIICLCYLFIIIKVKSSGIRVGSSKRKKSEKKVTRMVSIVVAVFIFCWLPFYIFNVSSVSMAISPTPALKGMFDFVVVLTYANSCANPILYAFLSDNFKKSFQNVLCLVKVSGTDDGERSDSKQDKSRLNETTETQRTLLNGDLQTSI
Experimental: (§1) Radiolabeling binding assays were carried out as described in the prior art like, e.g. in Gazal S. et al (2002) J. Med. Chem. 45: 1665-1671. The radioligand binding assays were carried out on membranes prepared from CHO-K1 cells stably expressing individually cloned somatostatin receptors 2 or 5 (SSTR2 or SSTR5). Cells were grown for 2 days for almost confluence and were washed and scraped into 50 mM ice-cold Tris-HCl, pH 7.8, containing 1 mM EGTA, 5 mM MgCl2, […], 0.1 mM PMSF, and 0.5 mg/mL aprotinin (buffer A) and were centrifuged at 10,000 rpm for 10 min at 4° C. (in Sorvall RC 26 Plus ultracentrifuge, rotor SS-34). The pellet was resuspended in buffer A and homogenized with a Polytron PT 1200 homogenizer (Kinematica AG, Switzerland) (setting 2, 3 strokes 10 s each). The homogenate was then centrifuged at 20 000 rpm for 20 min at 4° C. The pellet was resuspended in buffer A and homogenized using the Polytron homogenizer (setting 2, 3 strokes 5 s each). The protein content was determined by Bradford, and the membrane preparation was diluted in buffer A containing 1 mg/mL bovine serum albumin (BSA) to a final 0.2 or 0.4 mg/mL membrane protein (depending on the specific somatostatin receptor used).
(§2) The radioligand binding assay was performed in 96 well microtiter plates (Maxisorp plates, Nunc, Denmark). Cell membranes ([…] protein) were incubated with the various cyclized peptides indicated in Table 1 & 2, which comprised a lanthanide chelation unit, in a final volume of 250 μL, for 45 min. at room temperature in the presence or absence of competing peptides. Nonspecific binding was defined as the radioactivity remaining bound in the presence of […] somatostatin. At the end of the binding, reaction free radioligand was separated from bound Ligand by rapid filtration through UniFilter GF/C plates preincubated in a solution of 5 g/L polyethyleneimine and 1 g/L BSA. The filtration was performed in Filter-Mate Cell Harvester (Packard Instrument Company, U.S.A.). After filtration, the filters were washed several times with cold buffer A containing 1 mg/mL BSA and allowed to dry overnight at room temperature. Then, bound radioactivity was counted. The binding assays were performed in triplicate wells. Data from radioligand binding were used to generate inhibition curves, and IC50 values were determined for each of the tested peptides. The saturation binding data were analyzed by the method of Scatchard, and IC50 values are expressed as mean±SEM (standard error of the mean).

SSTR5 = SSTR5 (Homo sapiens, UniProt P35346); experiment: Radioligand binding assay on membranes of CHO-K1 cells expressing SSTR5; conditions: for IC50: membranes from CHO-K1 cells stably expressing cloned somatostatin receptor 5; for Ratio 2/5 in %: ratio of IC50 SSTR2 / IC50 SSTR5 in %
Sequence of SSTR5 (P35346 whole entry): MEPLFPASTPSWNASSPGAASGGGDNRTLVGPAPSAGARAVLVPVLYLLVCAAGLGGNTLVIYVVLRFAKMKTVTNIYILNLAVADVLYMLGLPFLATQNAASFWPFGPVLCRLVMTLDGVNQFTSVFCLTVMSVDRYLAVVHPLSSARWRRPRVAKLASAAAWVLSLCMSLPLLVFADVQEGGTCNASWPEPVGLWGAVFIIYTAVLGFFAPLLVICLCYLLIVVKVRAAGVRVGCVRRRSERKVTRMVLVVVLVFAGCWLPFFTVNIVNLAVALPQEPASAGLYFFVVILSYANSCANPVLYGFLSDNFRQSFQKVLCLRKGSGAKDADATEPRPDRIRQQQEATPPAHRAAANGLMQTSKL
Experimental: as §1, §2

somatostatin receptor 2 [1] = biological target: T1, somatostatin receptor 2 (UniProt P30874 1-369, limits assumed); experiment: radioligand competition binding, membranes of CHO-K1 cells expressing SSTR2
T1 construct: whole, on cells; Assayed as membrane preparation of CHO-K1 cells stably expressing the cloned receptor; also called SSTR2; somatostatin receptor subtype 2
T1 sequence (P30874 whole entry): as the sequence (P30874 whole entry) above

somatostatin receptor 5 [2] = biological target: T2, somatostatin receptor 5 (UniProt P35346 1-364, limits assumed); experiment: ratio of IC50 on SSTR2 to IC50 on SSTR5 (reference SSTR2), radioligand competition binding on CHO-K1 membranes
T2 construct: whole, on cells; Assayed as membrane preparation of CHO-K1 cells stably expressing the cloned receptor; also called SSTR5; somatostatin receptor subtype 5
T2 sequence (P35346 whole entry): as the sequence (P35346 whole entry) above

somatostatin receptor 5 [3] = biological target: T2, somatostatin receptor 5; experiment: radioligand competition binding, membranes of CHO-K1 cells expressing SSTR5
somatostatin receptor 5 [4] = biological target: T2, somatostatin receptor 5; experiment: ratio of IC50 on SSTR2 to IC50 on SSTR5 (reference SSTR2), radioligand competition binding on CHO-K1 membranes; remark: listed apart in the source
somatostatin receptor 5 [5] = biological target: T2, somatostatin receptor 5; experiment: radioligand competition binding, membranes of CHO-K1 cells expressing SSTR5; remark: listed apart in the source
somatostatin receptor 2 [6] = biological target: T1, somatostatin receptor 2; experiment: radioligand competition binding, membranes of CHO-K1 cells expressing SSTR2; remark: listed apart in the source

| Molecule | IC50 (somatostatin receptor 2 [1]) [nM] | Ratio 2/5 in % (somatostatin receptor 5 [2]) [%] | IC50 (somatostatin receptor 5 [3]) [nM] | Ratio 2/5 in % (somatostatin receptor 5 [4]) [%] | other results |
| --- | --- | --- | --- | --- | --- |
| CSCC[C@@H]1NC(=O)[C@H]([C@@H](C)O)NC(=O)[C@H](CCCCN)NC(=O)[C@@H](Cc2c[nH]c3ccccc23)NC(=O)[C@H](C(c2ccccc2)c2ccccc2)NC(=O)[C@H](Cc2ccccc2)N(C)C1=O [P2326, cyclo[DiphenylAla-DTrp-Lys-Thr-Met-(N-Me)Phe]] (cyclo([Dip][dW]KTM[NMeF])) | – | – | – | – | IC50 (SSTR2): 0.177 nM; IC50 (SSTR5): 42.2 nM; Ratio 2/5 in % (SSTR5): 0.42% |
| CSCC[C@@H]1NC(=O)[C@H](C(C)C)NC(=O)[C@H](CCCCN)NC(=O)[C@@H](Cc2c[nH]c3ccccc23)NC(=O)[C@H](Cc2cccc3ccccc23)NC(=O)[C@H](Cc2ccccc2)N(C)C1=O [P2329, cyclo[1Nal-DTrp-Lys-Val-Met-(N-Me)Phe]] (cyclo([1Nal][dW]KVM[NMeF])) | – | – | – | – | IC50 (SSTR2): 0.437 nM; IC50 (SSTR5): 4.17 nM; Ratio 2/5 in % (SSTR5): 10.5% |
| cyclo(W[dW]KTM[NMeF]) (SMILES CSCC[C@@H]1NC(=O)[C@H]([C@@H](C)O)NC(=O)[C@H](CCCCN)NC(=O)[C@@H](Cc2c[nH]c3ccccc23)NC(=O)[C@H](Cc2c[nH]c3ccccc23)NC(=O)[C@H](Cc2ccccc2)N(C)C1=O, also called cyclo[Trp-DTrp-Lys-Thr-Met-(NMe)Phe]) [P2269] | 0.501 | 15.3 | 3.27 | – | – |
| cyclo(Y[dW]K[Dap]M[NMeF]) (SMILES CSCC[C@@H]1NC(=O)[C@H](CN)NC(=O)[C@H](CCCCN)NC(=O)[C@@H](Cc2c[nH]c3ccccc23)NC(=O)[C@H](Cc2ccc(O)cc2)NC(=O)[C@H](Cc2ccccc2)N(C)C1=O, Cyclic hexapeptide; also called cyclo[Tyr-DTrp-Lys-Dpr-Met-(NMe)Phe]) [P2267] | 0.501 | 1.9 | 25.9 | – | – |
| cyclo(Y[dW]KTF[NMehCys]) (SMILES C[C@@H](O)[C@@H]1NC(=O)[C@H](CCCCN)NC(=O)[C@@H](Cc2c[nH]c3ccccc23)NC(=O)[C@H](Cc2ccc(O)cc2)NC(=O)[C@H](CCS)N(C)C(=O)[C@H](Cc2ccccc2)NC1=O, Known somatostatin analogue tested as comparison; also called cyclo[Tyr-DTrp-Lys-Thr-Phe-(NMe)hCys]) [P1839] | – | – | – | 0.15 | – |
| ReP2045 (thioether I:6-II:1 via CH2CO; not fully specified; also: head-to-tail to a chain's N/C-terminus, also called cyclo[Tyr-DTrp-Lys-Thr-Phe-(NMe)hCys]-CH2CO-βDpr-Phe(4-NH2)-Cys-Thr-Ser-OH-[R = 0]) peptide 1: Y[dW]KTF[NMehCys] peptide 2: [βDpr][Phe(4-NH2)]CTS-OH | – | – | – | 0.014 | IC50 (somatostatin receptor 5 [5]): 627 nM; IC50 (somatostatin receptor 2 [6]): 0.089 nM |
| cyclo([1Nal][dW]KTK(GlyMeDOTA)[NMeF]) (Cyclic hexapeptide carrying a DOTA chelator on Lys 5; also called cyclo[1Nal-DTrp-Lys-Thr-Lys(GlyMeDOTA)-(N-Me)Phe]) [P2323] | 37.4 | 399 | 9.37 | – | – |
| P2045 (thioether I:6-II:1 via CH2CO; also: head-to-tail to a chain's N/C-terminus, also called cyclo[Tyr-DTrp-Lys-Thr-Phe-(NMe)hCys]-CH2CO-βDpr-Phe(4-NH2)-Cys-Thr-Ser-OH) peptide 1: Y[dW]KTF[NMehCys] peptide 2: [βDpr][Phe(4-NH2)]CTS-OH | – | – | – | 0.084 | IC50 (somatostatin receptor 5 [5]): 249 nM; IC50 (somatostatin receptor 2 [6]): 0.21 nM |
| cyclo(Y[dW]KTM[Tpi]) (SMILES CSCC[C@@H]1NC(=O)[C@H]([C@@H](C)O)NC(=O)[C@H](CCCCN)NC(=O)[C@@H](Cc2c[nH]c3ccccc23)NC(=O)[C@H](Cc2ccc(O)cc2)NC(=O)[C@@H]2Cc3c([nH]c4ccccc34)CN2C1=O, Cyclic hexapeptide; also called cyclo[Tyr-DTrp-Lys-Thr-Met-Tpi]) [P2274] | 1.22 | 6.1 | 19.9 | – | – |
| cyclo(Y[dW]K[βAla(cyclopropyl)]M[NMeF]) (Cyclic hexapeptide; also called cyclo[Tyr-DTrp-Lys-BAla(cyclopropyl)-Met-(N-Me)Phe]) [P2300] | 0.198 | 0.96 | 20.7 | – | – |
